In PMC2891831, “Insight into the Mechanisms of Adenovirus Capsid Disassembly from Studies of Defensin Neutralization” (PLoS Pathogens, 2010):

System: Ad5.eGFP
Assay: Ad5.eGFP infection, eGFP-positive cells by flow cytometry
Format: cell-based, human adenovirus
Conditions: 15 µM defensin, percent eGFP positive cells vs. no defensin, at least three independent experiments
Description: To gain further insight into the defensin-HAdV interaction, we assessed the requirement for two conserved structural elements on the anti-AdV activity of HD5. All defensins have three disulfide bonds (Figure 3A). […] The antibacterial properties of defensins, which are dependent upon protein-lipid interactions, are not uniformly conformation dependent [27]–[29]. […] In contrast, defensin-related chemokine activity, which relies on protein-protein interactions, is dependent on defensin conformation. We hypothesized that the defensin-capsid interaction for sensitive serotypes would likely be dependent upon defensin conformation, as this would be more typical for protein-protein interactions. […]
Figure 3 HD5 antiviral activity is structure dependent. […] C) Binding of Alexa Fluor 488-labeled HAdV-5 to cells was assessed after incubation with or without 20 µM HD5 or HD5-Abu and in competition with 100 nM 5FK or 16 FK. Data are the mean fold increase in geometric mean fluorescence compared to cells alone and are of at least 10,000 cells from each of three independent experiments ± SD.
To test the activity of HD5 derivates, Ad5.eGFP was incubated with 15 µM of HD5, HD5-Abu, or HD5-E14Q. Infectivity was assessed by enumerating eGFP-positive cells by flow cytometry as described.

B1: HD5-E14Q: HD5 containing a substitution of glutamine for glutamic acid 14, to disrupt the conserved salt bridge (peptide, UniProt Q01523 20-94, looked up, variant E14Q)
Defensin alpha 5: ESLQERADEATTQKQSGEDNQDLAISFAGNGLSALRTSGSQARATCYCRTGRCATRQSLSGVCEISGRLYRLCCR
modifications: Defensin-5
notes: HD5 containing a substitution of glutamine for glutamic acid 14, to disrupt the conserved salt bridge
  antiviral activity against Ad5.eGFP: no effect on antiviral activity
